{"source": "paper PMC10500007", "test_in_all_cases": "BLI; Octet RED96; His-tagged or Avi-tagged minibinder immobilised on Ni-NTA or streptavidin tips, dipped into titrations of integrin; association 900 s, dissociation 1200 s", "key": {"[1]": {"molecular_target": "av6_3 E13TG64R", "sequence (main, as listed by the source)": "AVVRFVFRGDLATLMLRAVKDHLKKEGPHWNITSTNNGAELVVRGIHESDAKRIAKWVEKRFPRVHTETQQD"}, "[2]": {"molecular_target": "av6_3 A39K", "sequence (main, as listed by the source A39K)": "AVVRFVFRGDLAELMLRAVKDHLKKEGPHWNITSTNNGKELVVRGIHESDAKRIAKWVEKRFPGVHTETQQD"}, "[3]": {"molecular_target": "av6_3 E13TM15RA39K", "sequence (main, as listed by the source)": "as the sequence (main, as listed by the source A39K) above, with E13T, M15R counted along it"}, "[4]": {"molecular_target": "av6_3 E13TM15RA39KG64R", "sequence (main, as listed by the source)": "as the sequence (main, as listed by the source A39K) above, with E13T, M15R, G64R counted along it"}, "[5]": {"molecular_target": "av6_3 G64R", "sequence (main, as listed by the source G64R)": "as the sequence (main, as listed by the source A39K) above, with K39A, G64R counted along it"}, "[6]": {"molecular_target": "av6_3 M15RG64R", "sequence (main, as listed by the source)": "as the sequence (main, as listed by the source A39K) above, with M15R, K39A, G64R counted along it"}, "[7]": {"molecular_target": "av6_3 M15R", "sequence (main, as listed by the source M15R)": "as the sequence (main, as listed by the source A39K) above, with M15R, K39A counted along it"}}, "data": [{"substance": "human integrin αvβ6 (soluble, BLI analyte) (from UniProt P06756 31-1048; P18564 22-709) (receptor)", "values": [{"measurement": "Kd", "setting": "[1]", "result": 0.79, "unit": "nM"}, {"measurement": "koff", "setting": "[1]", "result": "8.87e-05", "unit": "s⁻¹"}, {"measurement": "kon", "setting": "[1]", "result": 112000, "unit": "M⁻¹ s⁻¹"}, {"measurement": "Kd", "setting": "[2]", "result": 0.64, "unit": "nM"}, {"measurement": "koff", "setting": "[2]", "result": "8.16e-05", "unit": "s⁻¹"}, {"measurement": "kon", "setting": "[2]", "result": 127000, "unit": "M⁻¹ s⁻¹"}, {"measurement": "Kd", "setting": "[3]", "result": 1.08, "unit": "nM"}, {"measurement": "koff", "setting": "[3]", "result": "9.1e-05", "unit": "s⁻¹"}, {"measurement": "kon", "setting": "[3]", "result": 84300, "unit": "M⁻¹ s⁻¹"}, {"measurement": "Kd", "setting": "[4]", "result": 0.79, "unit": "nM"}, {"measurement": "koff", "setting": "[4]", "result": "8.31e-05", "unit": "s⁻¹"}, {"measurement": "kon", "setting": "[4]", "result": 104000, "unit": "M⁻¹ s⁻¹"}, {"measurement": "Kd", "setting": "[5]", "result": 0.95, "unit": "nM"}, {"measurement": "koff", "setting": "[5]", "result": 0.000134, "unit": "s⁻¹"}, {"measurement": "kon", "setting": "[5]", "result": 141000, "unit": "M⁻¹ s⁻¹"}, {"measurement": "Kd", "setting": "[6]", "result": 0.74, "unit": "nM"}, {"measurement": "koff", "setting": "[6]", "result": "7.71e-05", "unit": "s⁻¹"}, {"measurement": "kon", "setting": "[6]", "result": 104000, "unit": "M⁻¹ s⁻¹"}, {"measurement": "Kd", "setting": "[7]", "result": 0.38, "unit": "nM"}, {"measurement": "koff", "setting": "[7]", "result": "6.65e-05", "unit": "s⁻¹"}, {"measurement": "kon", "setting": "[7]", "result": 175000, "unit": "M⁻¹ s⁻¹"}]}]}
